Assay results from IntAct's records for PubMed 22664871.

B1: Tumor necrosis factor ligand superfamily member 11 (Homo sapiens), O14788 (parent)
chain: MRRASRDYTKYLRGSEEMGGGPGAPHEGPLHAPPPPAPHQPPAASRSMFVALLGLGLGQVVCSVALFFYFRAQMDPNRISEDGTHCIYRILRLHENADFQDTTLESQDTKLIPDSCRRIKQAFQGAVQKELQHIVGSQHIRAEKAMVDGSWLDLAKRSKLEAQPFAHLTINATDIPSGSHKVSLSSWYHDRGWAKISNMTFSNGKLIVNQDGFYYLYANICFRHHETSGDLATEYLQLMVYVTKTSIKIPSSHTLMKGGSTKYWSGNSEFHFYSINVGGFFKLRSGEEISIEVSNPSLLDPDQDATYFGAFKVRDID
partner: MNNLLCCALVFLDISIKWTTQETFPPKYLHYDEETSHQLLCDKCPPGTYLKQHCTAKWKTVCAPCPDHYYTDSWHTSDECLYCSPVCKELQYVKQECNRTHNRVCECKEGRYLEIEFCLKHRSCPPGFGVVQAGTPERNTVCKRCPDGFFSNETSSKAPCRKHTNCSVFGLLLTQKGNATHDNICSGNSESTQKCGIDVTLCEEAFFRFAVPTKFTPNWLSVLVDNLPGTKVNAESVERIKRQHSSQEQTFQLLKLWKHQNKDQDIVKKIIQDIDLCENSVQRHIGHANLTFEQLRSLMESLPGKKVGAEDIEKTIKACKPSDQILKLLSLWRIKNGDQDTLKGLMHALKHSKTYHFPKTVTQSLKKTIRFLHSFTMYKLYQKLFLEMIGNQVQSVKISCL
B2: Tumor necrosis factor receptor superfamily member 11B (Homo sapiens), O00300 (parent)
chain: B1 partner
partner: B1 chain
B3: Tumor necrosis factor ligand superfamily member 11 (Homo sapiens), O14788 (parent)
chain: B1 chain
partner: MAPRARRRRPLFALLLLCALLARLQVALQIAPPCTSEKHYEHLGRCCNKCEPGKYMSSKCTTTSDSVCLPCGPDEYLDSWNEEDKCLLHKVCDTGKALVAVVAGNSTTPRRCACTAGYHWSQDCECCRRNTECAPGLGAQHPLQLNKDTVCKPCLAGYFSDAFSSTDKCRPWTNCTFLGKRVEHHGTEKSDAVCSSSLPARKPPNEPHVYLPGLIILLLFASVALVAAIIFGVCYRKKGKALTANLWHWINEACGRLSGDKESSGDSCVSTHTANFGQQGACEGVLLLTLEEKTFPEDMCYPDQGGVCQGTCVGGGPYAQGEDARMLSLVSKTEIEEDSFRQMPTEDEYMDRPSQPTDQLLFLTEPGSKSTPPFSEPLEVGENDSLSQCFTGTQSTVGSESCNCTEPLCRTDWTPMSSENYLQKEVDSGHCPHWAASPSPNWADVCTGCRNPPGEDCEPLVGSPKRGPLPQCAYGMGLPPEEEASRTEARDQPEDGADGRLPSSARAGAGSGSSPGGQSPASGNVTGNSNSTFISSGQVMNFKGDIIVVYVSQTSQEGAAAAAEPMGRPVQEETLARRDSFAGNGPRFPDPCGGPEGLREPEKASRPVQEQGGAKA

Variants of: B1
Conditions: with tr11b_human TNFRSF11B

effect of a mutation on the interaction	Variant
decreasing interaction strength	Y241A
disrupting interaction strength	K257A
disrupting interaction strength	R223A

Variants of: B2
Conditions: with tnf11_human TNFSF11, O14788

effect of a mutation on the interaction	Variant
with no effect	D78A;E79A
decreasing interaction strength	E116A

Variants of: B3
Conditions: with tnr11_human TNFRSF11A

effect of a mutation on the interaction	Variant
disrupting interaction strength	K257A
decreasing interaction strength	Y241A
disrupting interaction strength	R223A
